Experimental data: article PMC6158681

Molecular target: SpyCatcher-mi3 (Streptococcus pyogenes | Thermotoga maritima)

With SpyTag-MBP the % conjugation was 91%.
